Test results taken from patent US20250152717A1.

Molecular target: KRAS-G12V8-16 peptide (…) presented by HLA-A11 (human)
Assay: cell-based or functional assay

- percent of TCR 11N4A-transduced T cells responding (CD137) to peptide: > 80%
B1: TCR 11N4A (TCR)
TCR alpha: QQKNDDQQVKQNSPSLSVQEGRISILNCDYTNSMFDYFLWYKKYPAEGPTFLISISSIKDKNEDGRFTVFLNKSAKHLSLHIVPSQPGDSAVYFCAASGVSGNTPLVFGKGTRLSVIANIQNPDPAVYQLRDSKSSDKSVCLFTDFDSQTNVSQSKDSDVYITDKCVLDMRSMDFKSNSAVAWSNKSDFACANAFNNSIIPEDTFFPSPESSCDVKLVEKSFETDTNLNFQNLSVIGFRILLLKVAGFNLLMTLRLWSS
TCR beta: GVTQTPRYLIKTRGQQVTLSCSPISGHRSVSWYQQTPGQGLQFLFEYFSETQRNKGNFPGRFSGRQFSNSRSEMNVSTLELGDSALYLCASSVGTVEQYFGPGTRLTVTEDLKNVFPPEVAVFEPSEAEISHTQKATLVCLATGFYPDHVELSWWVNGKEVHSGVCTDPQPLKEQPALNDSRYCLSSRLRVSATFWQNPRNHFRCQVQFYGLSENDEWTQDRAKPVTQIVSAEAWGRADCGFTSESYQQGVLSATILYEILLGKATLYAVLVSALVLMAMVKRKDSRG
